According to patent US20260077011A1, “INTEGRIN INHIBITORS AS THERAPY FOR OBESITY DISORDERS” (priority 2022, published 2026):
Where no end group is shown, it is not given here.

What was measured:
integrin α9β1 [1] = target: T1, integrin α9β1 (Mus musculus, UniProt B8JK39+P09055); experiment: FITC-peptide dose-dependent uptake and time curve binding, flow cytometry; conditions: RAW264.7 cells
T1 construct: RAW264.7 cells, a murine macrophage-like cell line, was chosen due to their similarity to macrophages, adhesive and migratory capabilities, and their expression of integrin α9β1; host or cells: RAW264.7
Description: (§1) RAW264.7 cells were incubated in PBS with 2% serum, 0.1% NaN3, and 1 mM EDTA for 20 minutes, collected, and centrifuged at 1800 rpm for 5 min. Next, the cells were suspended in a staining buffer; PBS with 2% serum and 0.1% NaN3 for 15 min on ice. The cells were stained for ITGA9-PE (R&D technologies).
(§2) Cells were also analyzed for the FITC-labeled peptide, which was added to the suspension of RAW264.7 cells in doses of 100 nM, 1 μM, 3 μM, 10 μM, 30 μM, 100 μM, and 300 μM, for one hour. For the time curve binding assay, 3 μM of the FITC-peptide were incubated with cells for 1, 5, 15, 60, 180, and 360 minutes before and analyzed on flow cytometry. For the propidium iodide (PI) assay, cells were incubated with different doses of the peptide for eight and 24 hours, with 10% DMSO serving as a positive control; the cells were then suspended, stained with PI, and analyzed with flow cytometry.
All labeled cells were analyzed by Cytoflex5l and Kaluza software (Beckman Coulter instrument).
In a previous study, a 9 amino-acid long sequence, “EDDMMEVPY”, was identified as the binding site of SVEP1 to integrin α9β1. To examine the effect of the peptide in vitro, RAW264.7 cells, a murine macrophage-like cell line, was chosen due to their similarity to macrophages, adhesive and migratory capabilities, and their expression of integrin α9β1, as shown in the confocal staining of ITGA9 and F4/80, with a seeming membranal expression of both (FIG. 5G). […] To characterize the binding properties of the peptide, a fluorescein isothiocyanate (FITC) labeled peptide was generated. The inventors first performed a dose-dependent uptake test, where the RAW264.7 cells were incubated with increasing peptide concentrations for half an hour and then measured in a flow cytometry assay. […] Next, the cells were pretreated with the peptide for different time durations and were also measured by flow cytometry analysis. The peptide bonded relatively quickly, with 50% of max mean fluorescence intensity presented after 15 minutes and stabilization after three hours (FIG. 5C). […]

integrin α9β1 [2] = target: T1, integrin α9β1; experiment: Fluorescent live microscopy of FITC-peptide binding with/without unlabeled peptide; conditions: RAW264.7 cells, FITC-peptide 30 μM
Description: FIGS. 5A-5M include fluorescent micrographs and graphs showing characterization of the peptide's binding properties. (5A) Representative immunofluorescent confocal images of Raw264.7 cells stained for F4/80 and ITGA9, the dotted line square represents the magnified pictures, scale bar 116 μm. (5B) Flow cytometry quantification of LPS-activated RAW264.7 cells, ITGA9 MFI levels in LPS-activated RAW264.7 cells (4 hours), significance was calculated by unpaired t-test analysis. (5C) Calculated dose-response curve of Peptide-FITC positive RAW264.7 cells, measured in flow cytometry and time curve of the averaged mean fluorescent intensity (MFI) of RAW264.7 cells incubated with the labeled peptide, the MFI was calculated by flow cytometry. (5D) Representative images of RAW264.7 cells incubated with FITC-peptide (30 μM) for 15 and 60 minutes with and without an unlabeled peptide, scale bar=100 μm, and quantification of fluorescence intensity of RAW264.7 cells incubated with FITC-peptide (30 μM) for 15 and 60 minutes, w/o the unlabeled peptide, significance was calculated by using an ordinary one-way ANOVA. […] (5F) ITGA9 fluorescence intensity histogram in Scrambled and ITGA9 KD (Red) Raw264.7 cells incubated with FITC-peptide (30 μM) for 60 minutes, measured by flow cytometry. […]

ITGA9 = target: T2, ITGA9 (Mus musculus, UniProt B8JK39+P09055); experiment: FITC-peptide binding specificity in ITGA9 knockdown (siITGA9) cells; conditions: RAW264.7 cells, FITC-peptide 30 μM, 60 minutes
T2 construct: RAW264.7 cells, a murine macrophage-like cell line, was chosen due to their similarity to macrophages, adhesive and migratory capabilities, and their expression of integrin α9β1; host or cells: RAW264.7
Description: For siRNA assays, RAW264.7 cells were transfected by using Avalanche®-Everyday Transfection Reagent (Ezbio systems) with siSCR (Santa Cruz) and siITGA9 (Santa Cruz) in DMEM. The transfection solution was added to the cells for 48 hours, and the cells were examined after an additional 48 hours (96 hours in total).
as §1
In a previous study, a 9 amino-acid long sequence, “EDDMMEVPY”, was identified as the binding site of SVEP1 to integrin α9β1. […] The inventors first performed a dose-dependent uptake test, where the RAW264.7 cells were incubated with increasing peptide concentrations for half an hour and then measured in a flow cytometry assay. […] Next, the cells were pretreated with the peptide for different time durations and were also measured by flow cytometry analysis. The peptide bonded relatively quickly, with 50% of max mean fluorescence intensity presented after 15 minutes and stabilization after three hours (FIG. 5C). […]

RAW264.7 cells = type: cell-based
Description: as §2
To investigate the effects of the SVEP1-based peptide on the metabolic and proliferative capacity of macrophage cells, RAW264.7 cells were subjected to varying concentrations of the peptide (1, 10, 30, 120 μM). The cells' metabolic activity was assessed using XTT after 3, 8, and 24 hours of peptide treatment. […] To further evaluate cell viability, propidium iodide (PI) staining was conducted after 8 and 24 hours of peptide treatment. […] These findings provide evidence of the peptide's safety profile and its potential suitability for use in macrophage cells.

T1 sequence (B8JK39 29-1036): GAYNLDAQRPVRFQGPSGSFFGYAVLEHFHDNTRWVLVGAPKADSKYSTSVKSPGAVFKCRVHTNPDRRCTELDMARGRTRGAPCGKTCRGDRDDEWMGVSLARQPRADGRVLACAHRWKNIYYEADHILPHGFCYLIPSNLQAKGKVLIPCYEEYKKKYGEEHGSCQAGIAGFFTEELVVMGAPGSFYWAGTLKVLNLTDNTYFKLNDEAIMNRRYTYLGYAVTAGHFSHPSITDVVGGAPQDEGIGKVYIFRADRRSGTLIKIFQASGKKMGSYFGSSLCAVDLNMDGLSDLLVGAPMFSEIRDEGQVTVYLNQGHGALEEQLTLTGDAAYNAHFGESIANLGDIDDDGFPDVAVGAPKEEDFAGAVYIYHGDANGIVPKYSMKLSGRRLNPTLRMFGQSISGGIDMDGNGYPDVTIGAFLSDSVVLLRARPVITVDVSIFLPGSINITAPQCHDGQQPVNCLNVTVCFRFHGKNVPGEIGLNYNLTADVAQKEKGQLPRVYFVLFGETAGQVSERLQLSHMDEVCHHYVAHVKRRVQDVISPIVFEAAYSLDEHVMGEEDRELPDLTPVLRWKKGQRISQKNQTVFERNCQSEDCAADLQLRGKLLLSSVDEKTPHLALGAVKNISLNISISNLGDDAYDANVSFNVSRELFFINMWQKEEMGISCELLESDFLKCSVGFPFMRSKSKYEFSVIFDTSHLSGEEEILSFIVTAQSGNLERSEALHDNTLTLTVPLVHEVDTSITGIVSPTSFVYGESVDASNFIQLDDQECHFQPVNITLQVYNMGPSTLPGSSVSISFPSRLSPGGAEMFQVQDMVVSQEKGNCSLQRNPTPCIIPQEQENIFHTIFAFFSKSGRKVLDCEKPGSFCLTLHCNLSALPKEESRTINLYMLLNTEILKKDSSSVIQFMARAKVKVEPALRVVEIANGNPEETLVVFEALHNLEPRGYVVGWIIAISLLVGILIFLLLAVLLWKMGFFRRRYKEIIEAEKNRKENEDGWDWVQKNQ
T1 sequence (P09055 21-798): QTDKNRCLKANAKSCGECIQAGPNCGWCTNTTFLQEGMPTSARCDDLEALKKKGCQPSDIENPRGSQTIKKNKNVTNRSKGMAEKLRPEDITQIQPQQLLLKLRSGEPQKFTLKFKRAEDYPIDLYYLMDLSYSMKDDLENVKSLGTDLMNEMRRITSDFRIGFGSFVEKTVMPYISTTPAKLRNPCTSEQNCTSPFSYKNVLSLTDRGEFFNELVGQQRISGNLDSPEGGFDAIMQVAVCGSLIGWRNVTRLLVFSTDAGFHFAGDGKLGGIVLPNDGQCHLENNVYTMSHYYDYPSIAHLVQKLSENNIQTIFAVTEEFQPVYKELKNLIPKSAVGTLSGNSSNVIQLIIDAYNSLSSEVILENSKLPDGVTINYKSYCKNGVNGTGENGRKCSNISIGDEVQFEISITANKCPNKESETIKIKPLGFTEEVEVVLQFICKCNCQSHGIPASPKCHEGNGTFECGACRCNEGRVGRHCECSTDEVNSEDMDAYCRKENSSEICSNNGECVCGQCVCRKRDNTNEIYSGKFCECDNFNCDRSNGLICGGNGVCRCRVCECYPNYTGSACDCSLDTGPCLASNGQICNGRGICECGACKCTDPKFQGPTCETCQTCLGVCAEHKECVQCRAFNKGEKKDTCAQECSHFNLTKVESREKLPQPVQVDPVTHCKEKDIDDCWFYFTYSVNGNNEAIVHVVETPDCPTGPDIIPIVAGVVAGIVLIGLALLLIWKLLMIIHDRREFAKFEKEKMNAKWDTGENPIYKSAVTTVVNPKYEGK
T2 sequence (B8JK39 29-1036): as the sequence (B8JK39 29-1036) above
T2 sequence (P09055 21-798): as the sequence (P09055 21-798) above

| Substance | time to 50% of max mean fluorescence intensity (integrin α9β1 [1]; 3 μM FITC-peptide) [min] | time to stabilization of mean fluorescence intensity (integrin α9β1 [1]; 3 μM FITC-peptide) | percentage of Peptide-FITC positive cells (integrin α9β1 [1]; increasing peptide concentrations, half an hour) | increase of fluorescence intensity after 60 minutes compared to 15 minutes (integrin α9β1 [2]) [%] | change of fluorescence intensity when co-incubated with the unlabeled peptide (integrin α9β1 [2]; competitive binding) | FITC-peptide binding (fluorescence intensity) in siITGA9 versus scrambled cells (ITGA9) | percentage of ITGA9+FITC-peptide+ cells in KD cells (ITGA9; flow cytometry) | fraction of PI-positive cells compared to the untreated group (RAW264.7 cells) |
| --- | --- | --- | --- | --- | --- | --- | --- | --- |
| FITC-peptide: fluorescein isothiocyanate (FITC) labeled peptide of 9 amino acids (EDDMMEVPY) (also: FITC labeled, site not given here) | 15 | three | higher percentage of positive cells in a dose-related manner | 35 | decreased by a similar percentage | lower intensity levels | significantly lower | – |
| EDDMMEVPY [peptide, EDDMMEVPY] | – | – | – | – | – | – | – | remained unchanged |
